Here are results for two molecules from paper PMC2859563.

The target in the data set is T1, SmcR (Vibrio vulnificus, UniProt Q9L8G8 1-205).
T1 sequence: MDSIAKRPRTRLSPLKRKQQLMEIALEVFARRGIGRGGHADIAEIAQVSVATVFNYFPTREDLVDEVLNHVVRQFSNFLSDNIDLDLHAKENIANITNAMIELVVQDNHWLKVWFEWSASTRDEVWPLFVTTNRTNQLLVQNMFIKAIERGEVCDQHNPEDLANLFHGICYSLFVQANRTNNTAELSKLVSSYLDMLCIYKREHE
The experiment in a line: ITC.

B1: PvvpE (dsDNA)
DNA 1: ATCTTATTGATAAATCTGCGTAAAAAA
DNA 2: TTTTTTACGCAGATTTATCAATAAGAT
With B1, binding was put at a Kd of 2800 nM.

B2: PvvpE-mod (dsDNA)
DNA 1: TTCTTATTGATAAATTTGTGAATAAAA
DNA 2: TTTTATTCACAAATTTATCAATAAGAA
Turning to B2, the Kd (as a rule, the free concentration of one partner at which half of the binding sites on the other are occupied at equilibrium, for simple one-to-one binding) came to 76 nM.
